B1: ZmACF88044: GH3 protein, accession ACF88044 (protein)
chain: MATYEDLQPYIRRIADGDRSPILSGHPVSEFLTSSGTSAGERKLMPTIEDELNRRQLLYSLQMPVMNLYVPGMDKGKALHFLFVKSETKTPGGLAARPVLTSYYKSNHFKNRPFDAYNNYTSPTAAILCADAFQSMYAQMLCGLCQRQDVLRVGAVFASGLLRAIRFLQLNWEQLAEDIEAGSLTPRVTDPSVREAVAGILRADPELAALVRSECSKGDWAGIITRIWPSTKYLDVIVTGAMAQYIPTLKYYSGGLPMACTMYASSECYFGLNLRPMCDPSEVSYTLMPNMCYFEFLPMDSAAASGGDASQLVDLARVEVGREYELVITTYAGLNRYRVGDVLQVTGFHNSAPQFRFVRRKNVLLSIESDKTDEAELQRAVERASALLRPHGAAVVEYTSQAYTKSIPGHYVIYWELLAKGPAGGAAVGEGTLERCCLEMEEALNTVYRQSRVADGSIGPLEIRVVRPGTFEELMDYAISRGASINQYKVPRCVTFPPIIELLDSRVVSSHFSPALPHWTPGQRSDSD
modifications: Zea mays
B2: AIGH3-14: GH3 protein, accession EFH47823 (protein, listed as Arabidopsis lyrata)
chain: MLPKFDPTDQKACLSLLEDVTTNVKQIQDSVLEAILSRNARTEYLSGFLNGQVDKQSFKKNLPVVTYEDIRPYIDRIANGEPSDLICDRPISVLLTSSGTSGGVPKLIPLTTDELEQRISFASLYRPLLYKYVEGIRERKSFMLYFVTRESETASGILVRTMITCVLKSLKPSNSFIWDQTQISPHGISTCSDTTQSMYCQLLCGLLQRDNVGRLGAPFASSFLKIIKFLEDHWPEFCSNIRTGRLSDWITDPQCVSGIGKFLTAPDPELASLIEQECSQTSWEAIVKRLWPKAKCIEAIVTGTMAQYIPLLEFYSGGLPVISTFYGSSECFIGLNLNPLSKPSDVSYTIIPCMAYFEFLEVGKDYQETGHDPAEKPVVVDLVDVKIGHDYEPVVTTFAGLYRYRLGDVLRVTGFYNNAPQFHFVGRQKVVLSIDMDKTYEEDLLKAVTNAKLLLEPHDLMLMDFTSRVDSSSFPGHYVLYWELGSKVKDAKLELDPNVLEECCFTIEESLDAVYRKGRKNDKNIGPLEIKVVKSGAFEELMNLFLSRGSSVSQYKTPRSVTNEEAVKILESNVVSEFLSRKTPSWELHELYSNR
B3: AtGH3-7: GH3 protein, accession AAC00604 (protein, listed as Arabidopsis thaliana)
chain: MSLTSDLSEKSSDKMKVLEDLTSNVTQIQDNVLEEILTLNANTNYLQKFFLGSFDKESFKKNVPVVTYEDVKPYIERVVNGEPSNVISARPITGFVLSTGTSGGAQKMMPWNEKYLDNLTFMYDLRMHIISNNVKDVEKGKAMMFYFTKLESITPSGLPARVASSSYLKSNYFKNRPSNWYYSYTSPDEVTLCPDNKQNLYCHLLCGLVQRNEVTRMGSIFASVMVRAIKFLEDSWEELCSNIRSGQLSEWITDIGCRDSVSLVLGGPHPEAADTIEQICNQKCWKGIITRLWPKAKYIETIVTGSMVQYVPTLNYYSNNMLPLISTIYASSETQFGLNLNPMCKPEDVSYTFMPNVSYFEFIPVDGDKNDVVDLADVKLGCCYEAVVTNFSGLYRIRVGDILVVTGFHNKAPQFRFIRRDNVVLSIDLDKTNEDDLFKAVNNAKLTLDSSHLMLIDFTSYADISTIPGHYVVYWEVKNKNEDKKSKKHIELKEETFSECCLLMEDSLDSVYKICRFKEESVGPLEIKVVRQGTFDSLMDYFISQGASIGQYKTPRCIKSGKALEVLEENVVATFFST
B4: AtGH3-19: GH3 protein, accession AAG60122 (protein, listed as Arabidopsis thaliana)
chain: MSLSVELKDLEVLTTNAKQIQDDVLKEILTLNANTEYLKRFLDGSSDKELFKKNVPVVSYNDVKPYIERVANGEPSDVISGGTITRFVQSTGTSGGIHKIFPVNDKYIENLGYLLAVSSLITSNDKVDEKGKKMAFLYNRLESKTPSGLALSSSFTSYFMSDYFKNRSSKCNSEYTSPDQVILCPDNNQSVYCHLLCGLSQREKVVGVSATFAHALIKAINALQIYWKELSSNIRSGHVSEWITDLDCKNAVSAILGGPDPELADVIEQECSHKSWEGIITRLWPKAKFIECIVTGQMAQYIPTLDFYSNKLPIVSMVYGSSESIFGVNVDPLSKPQDVSYTFLPNISYFEFLPIDHEEDMNTIVDLVGVKLGCYYETVVTSYFGLHRYLIGDILQVTGFYNNTPQFRFVRRKNIVLSVNSEATTEQDILKGLASATLVLESSNSMLTGFTCYADISSFPGHYVFYWELKAKDVDDVVELDENVLEECCYALEESFDALYKRLRSKEGSIGALEIKVVQQGTFDSLMEYFISKGGSVAQYKTPMCINSSETLAVLEDKVIARFYSQKSPPLNL
B5: AtGH3-12: GH3 protein, accession Q9LYU4 (protein, listed as Arabidopsis thaliana)
chain: MKPIFDINETFEKQLKDLTSNVKSIQDNLLEEIITPNTKTEYLQRFLIDRFDKELFKKNVPIVSYEDIKPYLDRVVNGESSDVISARTITGFLLSSGTSGGAQKMMPWNNKYLDNLTFIYDLRMQVITKHVKGVEEGKGMMFLFTKQESMTPSGLPARVATSSYFKSDYFKNRPSNWYYSYTSPDEVILCPNNTESLYCHLLCGLVQRDEVVRTGSIFASVMVRAIEVLKNSWEELCSNIRSGHLSNWVTDLGCQNSVSLVLGGPRPELADTIEEICNQNSWKGIVKRLWPNTKYIETVVTGSMGQYVPMLNYYCNDLPLVSTTYGSSETTFGINLDPLCKPEDVSYTFMPNMSYFEFIPMDGGDKNDVVDLEDVKLGCTYEPVVTNFAGLYRMRVGDIVLVTGFYNNAPQFKFVRRENVVLSIDSDKTNEEDLFKAVSQAKLVLESSGLDLKDFTSYADTSTFPGHYVVYLEVDTKEGEEKETAQFELDEEALSTCCLVMEESLDNVYKRCRFKDGSIGPLEIRVVRQGTFDSLMDFFISQGASTGQYKTPRCIKSGKALQVLETCVVAKFFSI

Tests used:
[1] = LC-MS assay of GH3 conjugation of 2,4-D with Asp or Glu; format: biochemical; conditions: for kcat (hrs−1) 2,4-D-Asp: conjugation of 2,4-D with Asp by recombinant GH3 protein, 2,4-D-Asp product by LC-MS; for kcat (hrs−1) 2,4-D-Asp / kcat (hrs−1) 2,4-D-Glu: 5 mM 2,4-D substrate; for kcat (hrs−1) 2,4-D-Glu: conjugation of 2,4-D with Glu by recombinant GH3 protein, 2,4-D-Glu product by LC-MS
Procedure: (§1) To detect and monitor the formation of acyl conjugates with 2,4-D or dicamba, a sensitive LC-MS method was developed using the respective amino acid conjugate standards. […] The reaction was performed at 30° C., 105 rpm, for 3 hours in buffer containing 20 mM Tris-HCl (pH 8.0), 5 mM MgCl2, 5 mM auxin (IAA, 2,4-D or dicamba), 5 mM ATP, 5 mM Asp or Glu, 1 mM DTT and 44 to 164 μg/mL purified GH3 protein in 100 μL reaction. After 3 hours of reaction, 400 μL 100% MeOH was added to the reaction mixture for protein precipitation. The supernatant was diluted 20× in water and then analyzed by LC-MS (AB Sciex 4000 QTrap coupled with Shimadzu Nexera UHPLC) using a Phenomenex Luna 3 μm Phenyl-Hexyl (00B-4256-Y0) column. The concentration of the conjugates was calculated based on the standards. Kinetic parameters were estimated by fitting initial velocity values to the Michaelis-Menten equation.
(§2) The GH3 superfamily conjugase activity analysis of IAA, 2,4-D or dicamba with Asp or Glu was done using LC-MS to analyze the final conjugate products as described in Example 1. Protein sequences of GH3 homologs (Table 3) were obtained from public databases (NCBI, http://www.ncbi.nlm.nih.gov/) by Blast analysis of AtGH3.17 protein sequence (accession # Q9FZ87). Coding sequences were designed for optimal expression in E. coli based on the protein sequences and synthesized. Synthesized coding sequences along with N-term his-tag coding sequences were cloned into a pET24a-based E. coli expression vector. The E. coli expression vectors were transformed into OverExpress C41(DE3) cells (Lucigen) for protein expression. Recombinant E. coli strains were inoculated into 5 ml LB media supplemented with 40 mg/L kanamycin and cultured overnight at 37° C. The overnight culture (0.5 mL) was inoculated into 50 mL LB medium plus 40 mg/L kanamycin and grown at 30° C. until OD600 reached 0.6. The cultures were induced with 0.2 mM IPTG at 16° C., 230 rpm overnight. Cells were harvested by centrifugation at 7,000 rpm for 10 mins. The cell pellet from 50 mL of cell culture was frozen and thawed twice and then lysed in 800 μL lysis buffer A (150 mM NaCl, 50 mM Tris-HCl pH 8.0, 5 mM MgCl2, 10% glycerol) plus 20 mM imidazole, 1 mM DTT, 0.2 mg/ml lysozyme, 1/200 protease inhibitor cocktail (EMD set3, EDTA free) and 1/2000 endonuclease. Lysate was then centrifuged at 13,000 rpm for 30 min at 4° C. Supernatant was loaded onto 200 μL Ni-NTA columns pre-equilibrated with buffer A with 20 mM imidazole at 4° C. Each column was then washed with (1) 2×800 μL of buffer A with 10 mM imidazole, (2) 2×800 μL of buffer A with 20 mM imidazole and (3) 2×200 μL of buffer A with 50 mM imidazole. Protein was eluted with 200 μL of buffer A with 250 mM imidazole. The concentration was measured by Bradford assay. Purified protein was used in conjugation reaction assays as described in example 1.

[2] = LC-MS assay of GH3 conjugation of IAA with Asp or Glu; format: biochemical; conditions: for kcat (hrs−1) IAA-Asp: conjugation of IAA with Asp by recombinant GH3 protein, IAA-Asp product by LC-MS; for kcat (hrs−1) IAA-Glu: conjugation of IAA with Glu by recombinant GH3 protein, IAA-Glu product by LC-MS
Procedure: as §1, §2

Row | Molecule | kcat (hrs−1) 2,4-D-Asp [1] | kcat (hrs−1) 2,4-D-Glu [1] | 2,4-D conjugation activity with Asp or Glu ([1]; result in words) | kcat (hrs−1) IAA-Asp [2] | kcat (hrs−1) IAA-Glu [2] | IAA conjugation activity with Asp or Glu ([2]; result in words) | Conjugation of Glu to IAA ([2]; result in words)
1 | B1 | 0.000 h⁻¹ | 0.033 h⁻¹ | 2,4-D conjugases | 0.000 h⁻¹ | 0.000 h⁻¹ | IAA-inactive | –
2 | B2 | 0.140 h⁻¹ | 0.322 h⁻¹ | – | 0.000 h⁻¹ | 1.756 h⁻¹ | – | can also conjugate Glu to IAA
3 | B3 | 0.000 h⁻¹ | 0.000 h⁻¹ | – | 0.000 h⁻¹ | 5.361 h⁻¹ | – | can also conjugate Glu to IAA
4 | B4 | 0.014 h⁻¹ | 0.048 h⁻¹ | – | 0.000 h⁻¹ | 3.177 h⁻¹ | – | can also conjugate Glu to IAA
5 | B5 | 0.002 h⁻¹ | 0.026 h⁻¹ | – | 0.000 h⁻¹ | 10.015 h⁻¹ | – | can also conjugate Glu to IAA

Reference: patent US20150351390A1, “COMPOSITIONS AND METHODS FOR AUXIN-ANALOG CONJUGATION” (PIONEER HI-BRED INTERNATIONAL, INC., priority 2012, published 2015)
